We go through two molecules from KR20200144536A (dated 2020).

Assay [1] concerns the target T1, hTie2-Fc (R&D Systems) (human, UniProt Q02763 23-745).
T1 construct: Bought fusion protein; neither the Tie2 range nor the linker is stated; also called hTie-2/Fc 융합 단백질; not shown: Fc of human IgG1
Put plainly: Complex ELISA: coated Tie2-Fc (4 ug/ml), 0.25 ug/ml Ang2 and 2 ug/ml 10D6, anti-mouse IgG-HRP, OD450.

Assay [2] deals with T2, 재조합 hAng-2 (C-His, R&D Systems) (human, UniProt O15123 19-496).
T2 construct: Bought protein; also called 인간 Ang-2 단백질; not shown: C-terminal His tag
T2 sequence: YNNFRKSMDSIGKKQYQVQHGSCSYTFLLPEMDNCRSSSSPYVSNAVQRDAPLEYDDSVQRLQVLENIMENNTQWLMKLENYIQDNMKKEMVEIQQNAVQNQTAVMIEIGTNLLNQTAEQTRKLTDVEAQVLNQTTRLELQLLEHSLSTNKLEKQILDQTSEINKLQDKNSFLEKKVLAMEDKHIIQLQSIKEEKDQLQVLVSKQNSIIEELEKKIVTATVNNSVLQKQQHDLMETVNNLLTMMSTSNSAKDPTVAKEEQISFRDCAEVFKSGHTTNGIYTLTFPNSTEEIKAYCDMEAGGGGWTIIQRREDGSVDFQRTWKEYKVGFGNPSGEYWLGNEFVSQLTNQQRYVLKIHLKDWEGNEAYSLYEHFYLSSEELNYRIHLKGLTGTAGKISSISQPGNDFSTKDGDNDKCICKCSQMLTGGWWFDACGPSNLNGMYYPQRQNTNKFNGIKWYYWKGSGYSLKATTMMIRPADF
Put plainly: SPR, BIAcore T100; hAng-2 (C-His) captured on an anti-His CM5 chip, antibody flowed from 100 nM in 2-fold dilutions. In general terms: SPR reads the build-up and loss of mass on a sensor chip optically.

The target of assay [3] is Mutant Ang2 P452 (알라닌 치환), FLAG-tagged (human) (UniProt O15123). Put plainly: ELISA, coated antibody (1000 nM), 250 ng FLAG-tagged mutant Ang2, anti-FLAG-HRP, OD450. In general terms: ELISA stands for enzyme-linked immunosorbent assay.
In assay [4] the target is Mutant Ang2 N467 (알라닌 치환), FLAG-tagged (human) (UniProt O15123). The description is as above.
Assay [5] deals with Mutant Ang2 A449 (알라닌 치환), FLAG-tagged (human) (UniProt O15123). Described as above.
In assay [6] the target is Mutant Ang2 N421 (알라닌 치환), FLAG-tagged (human) (UniProt O15123). The description is as above.
The target in assay [7] is Mutant Ang2 Y460 (알라닌 치환), FLAG-tagged (human) (UniProt O15123). Described as above.
Assay [8] has as its target Mutant Ang2 K468 (알라닌 치환), FLAG-tagged (human) (UniProt O15123). The assay is described as above.
For assay [9], the target named is Mutant Ang2 Q418 (알라닌 치환), FLAG-tagged (human) (UniProt O15123). The description is as above.
Assay [10] addresses Mutant Ang2 I434 (알라닌 치환), FLAG-tagged (human) (UniProt O15123). The assay is described as above.
Assay [11] deals with Mutant Ang2 P419 (알라닌 치환), FLAG-tagged (human) (UniProt O15123). Described as above.
The target in assay [12] is Mutant Ang2 F469 (알라닌 치환), FLAG-tagged (human) (UniProt O15123). The description is as above.
For assay [13], the target named is Mutant Ang2 S417 (알라닌 치환), FLAG-tagged (human) (UniProt O15123). The assay is described as above.
Assay [14] addresses Mutant Ang2 D448 (알라닌 치환), FLAG-tagged (human) (UniProt O15123). The description is as above.

T1 sequence (Q02763 23-745 limits assumed): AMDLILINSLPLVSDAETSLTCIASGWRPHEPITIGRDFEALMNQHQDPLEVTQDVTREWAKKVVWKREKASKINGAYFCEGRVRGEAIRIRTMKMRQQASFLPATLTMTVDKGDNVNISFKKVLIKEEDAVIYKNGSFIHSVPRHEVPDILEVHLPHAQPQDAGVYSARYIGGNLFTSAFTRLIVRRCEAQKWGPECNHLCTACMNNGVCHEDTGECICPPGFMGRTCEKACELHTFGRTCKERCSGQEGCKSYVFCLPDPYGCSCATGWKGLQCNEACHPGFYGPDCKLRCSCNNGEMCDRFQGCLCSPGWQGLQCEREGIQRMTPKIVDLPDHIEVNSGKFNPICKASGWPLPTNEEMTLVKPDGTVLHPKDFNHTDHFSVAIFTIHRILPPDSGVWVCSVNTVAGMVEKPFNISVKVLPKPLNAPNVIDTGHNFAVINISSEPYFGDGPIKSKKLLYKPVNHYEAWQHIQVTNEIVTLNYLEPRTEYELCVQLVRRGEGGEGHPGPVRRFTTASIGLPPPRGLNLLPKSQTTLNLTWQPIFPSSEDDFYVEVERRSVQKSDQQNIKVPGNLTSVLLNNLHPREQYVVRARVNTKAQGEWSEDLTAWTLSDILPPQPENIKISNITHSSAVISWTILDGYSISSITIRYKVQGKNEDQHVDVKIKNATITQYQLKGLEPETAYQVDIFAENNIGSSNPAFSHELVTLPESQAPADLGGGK

B1: Ang2 단백질(R&D systems) (ligand)
chain: T2 sequence
Turning to B1, the binding result in assay [1] is “binds”.

B2: SAIT-ANG2-AB-m10D6 (antibody, V domains shown)
VH: DVQLQESGPGLVKPSQSLSLTCTVTGYSITSDYAWNWIRQFPGNKLEWMGYINYSGNTDYNPSLKSRSSITRDTSKNQFFLQLNSVTTGDTATYYCARGNFEGAMDYWGQGTSVTVSS
VL: SIVMTQTPKFLLVSAGDRVTITCKASQSVSNDVAWYQQKPGQSPKLLIYYASNRYPGVPDRFTGSGYGTDFTFTISTVQAEDLAVYFCQQDYSSPWTFGGGTKLEIK
notes: Mouse monoclonal antibody from a hybridoma (KCLRF-BP-00295), purified on protein G; also called 10D6 항체; 10D6 anti-Ang2 항체
For orientation: Kd means the concentration at which binding is half-saturated. Take B2: the Kd in assay [2] was 8 nM. In addition, the binding to Mutant Ang2 relative to native Ang2 (%) in assay [3] amounted to 102%; in [4] it was 107%; in assay [5] it was 97.9%; in [6], 109%; in [7], 103%; in assay [8] it was 110%. Besides, the binding to Mutant Ang2 relative to native Ang2 (%) in assay [9] was found to be 38.9%; in assay [10], 109%; in assay [11] it was 41.1%; in [12], 109%; in assay [13], 101%; in [14], 105%.
